Here are results for eight molecules from US8357523B2, “Beta-glucosidase variant enzymes and related polynucleotides” (Codexis, Inc., priority 2009, dated 2013).

B1: 61 (protein)
chain: STAIAQEGAAPAAILHPEKWPRPATQRLIDPAVEKRVDALLKQLSVEEKVGQVIQGDIGTITPEDLRKYPLGSILAGGNSGPNGDDRAPPKEWLDLADAFYRVSLEKRPGHTPIPVLFGIDAVHGHGNIGSATIFPHNIALGATHDPELLRRIGAVTAVEMAATGIDWTFAPALSVVRDDRWGRTYEGFSEDPEIVAAYSAAIVEGVQGKFGSKDFMAPGRIVASAKHFLADGGTDQGRDQGDARISEDELIRIHNAGYPPAIDAGVLTVMASFSSWQGIKHHGHKQLLTDVLKGQMGFNGFIVGDWNAHDQVPGCTKFNCPTSLIAGLDMYMAADSWKQLYENTLAQVKDGTIPMARLDDAVRRILRVKVLAGLFEKPAPKDRPGLPGLETLGSPEHRAVGREAVRKSLVLLKNDKGTLPLSPKARVLVAGDGADNIGKQSGGWTISWQGTGNRNDEFPGATSILGGIRDAVADAGGSVEFDVAGQYKTKPDVAIVVFGEEPYAEFQGDVETLEYQPDQKQDLALLKKLKDQGIPVVAVFLSGRPMWVNPELNASDAFVAAWLPGTEGGGVADVLFTDKAGKVQHDFAGKLSYSWPRTAAQTTVNRGDADYNPLFAYGYGLTYKDKSKVGTLPEESGVPAEARQNAGIYFRAGALRLPGRFL
B2: 65 (protein)
chain: STAIAQEGAAPAAILHPEKWPRPATQRLIDPAVEKRVDALLKQLSVEEKVGQVIQGDIGTITPEDLRKYPLGSILAGGNSGPNGDDRAPPKEWLDLADAFYRVSLEKRPGHTPIPVLFGIDAVHGHGNIGSATIFPHNIALGATHDPELLRRIGEVTAVEMAATGIDWTFAPALSVVRDDRWGRTYEGFSEDPEIVAAYSAAIVEGVQGKFGSKDFMAQGRIVASAKHFLADGGTDQGRDQGDARISEDELIRIHNAGYPPAIDAGVLTVMASFSSWQGIKHHGHKQLLTDVLKGQMGFNGFIVGDWNAHDQVPGCTKFNCPTSLIAGLDMYMAADSWKQLYENTLAQVKDGTIPMARLDDAVRRILRVKVLAGLFEKPAPKDRPGLPGLETLGSPEHRAVGREAVRKSLVLLKNDKGTLPLSPKARVLVAGDGADNIGKQSGGWTISWQGTGNRNDEFPGATSILGGIRDAVADAGGSVEFDVAGQYKTKPDVAIVVFGEEPYAEFQGDVETLEYQPDQKQDLALLKKLKDQGIPVVAVFLSGRPMWVNPELNASDAFVAAWLPGTEGGGVADVLFTDKAGKVQHDFAGKLSYSWPRTAAQTTVNRGDADYNPLFAYGYGLTYKDKSKVGTLPEESGVPAEARQNAGIYFRAGALRLPGRFL
B3: 64 (protein)
chain: STAIAQEGAAPAAILHPEKWPRPATQRLIDPAVEKRVDALLKQLSVEEKVGQVIQGDIGTITPEDLRKYPLGSILAGGNSGPNGDDRAPPKEWLDLADAFYRVSLEKRPGHTPIPVLFGIDAVHGHGNIGSATIFPHNIALGATHDPELLRRIGEVTAVEMVATGIDWTFAPALSVVRDDRWGRTYEGFSEDPEIVAAYSAAIVEGVQGKFGSKDFMAPGRIVASAKHFLADGGTDQGRDQGDARISEDELIRIHNAGYPPAIDAGVLTVMASFSSWQGIKHHGHKQLLTDVLKGQMGFNGFIVGDWNAHDQVPGCTKFNCPTSLIAGLDMYMAADSWKQLYENTLAQVKDGTIPMARLDDAVRRILRVKVLAGLFEKPAPKDRPGLPGLETLGSPEHRAVGREAVRKSLVLLKNDKGTLPLSPKARVLVAGDGADNIGKQSGGWTISWQGTGNRNDEFPGATSILGGIRDAVADAGGSVEFDVAGQYKTKPDVAIVVFGEEPYAEFQGDVETLEYQPDQKQDLALLKKLKDQGIPVVAVFLSGRPMWVNPELNASDAFVAAWLPGTEGGGVADVLFTDKAGKVQHDFAGKLSYSWPRTAAQTTVNRGDADYNPLFAYGYGLTYKDKSKVGTLPEESGVPAEARQNAGIYFRAGALRLPGRFL
B4: 67 (protein)
chain: STAIAQEGAAPAAILHPEKWPRPATQRLIDPAVEKRVDALLKQLSVEEKVGQVIQGDIGTITPEDLRKYPLGSILAGGNSGPNGDDRAPPKEWLDLADAFYRVSLEKRPGHTPIPVLFGIDAVHGHGNIGSATIFPHNIALGATHDPELLRRIGEVTAVEMAATGIDWTFAPALSVVRDDRWGRTYEGFSEDPEIVAAYSAAIVEGVQGKFGSKDFMACGRIVASAKHFLADGGTDQGRDQGDARISEDELIRIHNAGYPPAIDAGVLTVMASFSSWQGIKHHGHKQLLTDVLKGQMGFNGFIVGDWNAHDQVPGCTKFNCPTSLIAGLDMYMAADSWKQLYENTLAQVKDGTIPMARLDDAVRRILRVKVLAGLFEKPAPKDRPGLPGLETLGSPEHRAVGREAVRKSLVLLKNDKGTLPLSPKARVLVAGDGADNIGKQSGGWTISWQGTGNRNDEFPGATSILGGIRDAVADAGGSVEFDVAGQYKTKPDVAIVVFGEEPYAEFQGDVETLEYQPDQKQDLALLKKLKDQGIPVVAVFLSGRPMWVNPELNASDAFVAAWLPGTEGGGVADVLFTDKAGKVQHDFAGKLSYSWPRTAAQTTVNRGDADYNPLFAYGYGLTYKDKSKVGTLPEESGVPAEARQNAGIYFRAGALRLPGRFL
B5: 62 (protein)
chain: STAIAQEGAAPAAILHPEKWPRPATQRLIDPAVEKRVDALLKQLSVEEKVGQVIQGDIGTITPEDLRKYPLGSILAGGNSGPNGDDRAPPKEWLDLADAFYRVSLEKRPGHTPIPVLFGIDAVHGHGNIGSATIFPHNIALGATHDPELLRRIGWVTAVEMAATGIDWTFAPALSVVRDDRWGRTYEGFSEDPEIVAAYSAAIVEGVQGKFGSKDFMAPGRIVASAKHFLADGGTDQGRDQGDARISEDELIRIHNAGYPPAIDAGVLTVMASFSSWQGIKHHGHKQLLTDVLKGQMGFNGFIVGDWNAHDQVPGCTKFNCPTSLIAGLDMYMAADSWKQLYENTLAQVKDGTIPMARLDDAVRRILRVKVLAGLFEKPAPKDRPGLPGLETLGSPEHRAVGREAVRKSLVLLKNDKGTLPLSPKARVLVAGDGADNIGKQSGGWTISWQGTGNRNDEFPGATSILGGIRDAVADAGGSVEFDVAGQYKTKPDVAIVVFGEEPYAEFQGDVETLEYQPDQKQDLALLKKLKDQGIPVVAVFLSGRPMWVNPELNASDAFVAAWLPGTEGGGVADVLFTDKAGKVQHDFAGKLSYSWPRTAAQTTVNRGDADYNPLFAYGYGLTYKDKSKVGTLPEESGVPAEARQNAGIYFRAGALRLPGRFL
B6: 63 (protein)
chain: STAIAQEGAAPAAILHPEKWPRPATQRLIDPAVEKRVDALLKQLSVEEKVGQVIQGDIGTITPEDLRKYPLGSILAGGNSGPNGDDRAPPKEWLDLADAFYRVSLEKRPGHTPIPVLFGIDAVHGHGNIGSATIFPHNIALGATHDPELLWRIGEVTAVEMAATGIDWTFAPALSVVRDDRWGRTYEGFSEDPEIVAAYSAAIVEGVQGKFGSKDFMAPGRIVASAKHFLADGGTDQGRDQGDARISEDELIRIHNAGYPPAIDAGVLTVMASFSSWQGIKHHGHKQLLTDVLKGQMGFNGFIVGDWNAHDQVPGCTKFNCPTSLIAGLDMYMAADSWKQLYENTLAQVKDGTIPMARLDDAVRRILRVKVLAGLFEKPAPKDRPGLPGLETLGSPEHRAVGREAVRKSLVLLKNDKGTLPLSPKARVLVAGDGADNIGKQSGGWTISWQGTGNRNDEFPGATSILGGIRDAVADAGGSVEFDVAGQYKTKPDVAIVVFGEEPYAEFQGDVETLEYQPDQKQDLALLKKLKDQGIPVVAVFLSGRPMWVNPELNASDAFVAAWLPGTEGGGVADVLFTDKAGKVQHDFAGKLSYSWPRTAAQTTVNRGDADYNPLFAYGYGLTYKDKSKVGTLPEESGVPAEARQNAGIYFRAGALRLPGRFL
B7: 68 (protein)
chain: STAIAQEGAAPAAILHPEKWPRPATQRLIDPAVEKRVDALLKQLSVEEKVGQVIQGDIGTITPEDLRKYPLGSILAGGNSGPNGDDRAPPKEWLDLADAFYRVSLEKRPGHTPIPVLFGIDAVHGHGNIGSATIFPHNIALGATHDPELLRRIGEVTAVEMAATGIDWTFAPALSVVRDDRWGRTYEGFSEDPEIVAAYSAAIVEGVQGKFGSKDFMAIGRIVASAKHFLADGGTDQGRDQGDARISEDELIRIHNAGYPPAIDAGVLTVMASFSSWQGIKHHGHKQLLTDVLKGQMGFNGFIVGDWNAHDQVPGCTKFNCPTSLIAGLDMYMAADSWKQLYENTLAQVKDGTIPMARLDDAVRRILRVKVLAGLFEKPAPKDRPGLPGLETLGSPEHRAVGREAVRKSLVLLKNDKGTLPLSPKARVLVAGDGADNIGKQSGGWTISWQGTGNRNDEFPGATSILGGIRDAVADAGGSVEFDVAGQYKTKPDVAIVVFGEEPYAEFQGDVETLEYQPDQKQDLALLKKLKDQGIPVVAVFLSGRPMWVNPELNASDAFVAAWLPGTEGGGVADVLFTDKAGKVQHDFAGKLSYSWPRTAAQTTVNRGDADYNPLFAYGYGLTYKDKSKVGTLPEESGVPAEARQNAGIYFRAGALRLPGRFL
B8: 66 (protein)
chain: STAIAQEGAAPAAILHPEKWPRPATQRLIDPAVEKRVDALLKQLSVEEKVGQVIQGDIGTITPEDLRKYPLGSILAGGNSGPNGDDRAPPKEWLDLADAFYRVSLEKRPGHTPIPVLFGIDAVHGHGNIGSATIFPHNIALGATHDPELLRRIGEVTAVEMAATGIDWTFAPALSVVRDDRWGRTYEGFSEDPEIVAAYSAAIVEGVQGKFGSKDFMAEGRIVASAKHFLADGGTDQGRDQGDARISEDELIRIHNAGYPPAIDAGVLTVMASFSSWQGIKHHGHKQLLTDVLKGQMGFNGFIVGDWNAHDQVPGCTKFNCPTSLIAGLDMYMAADSWKQLYENTLAQVKDGTIPMARLDDAVRRILRVKVLAGLFEKPAPKDRPGLPGLETLGSPEHRAVGREAVRKSLVLLKNDKGTLPLSPKARVLVAGDGADNIGKQSGGWTISWQGTGNRNDEFPGATSILGGIRDAVADAGGSVEFDVAGQYKTKPDVAIVVFGEEPYAEFQGDVETLEYQPDQKQDLALLKKLKDQGIPVVAVFLSGRPMWVNPELNASDAFVAAWLPGTEGGGVADVLFTDKAGKVQHDFAGKLSYSWPRTAAQTTVNRGDADYNPLFAYGYGLTYKDKSKVGTLPEESGVPAEARQNAGIYFRAGALRLPGRFL

The data set is described as follows: High throughput cellobiose assay: fold improvement in cellobiase activity of CelA variants over a control enzyme (Tables 2A-2D, 3, 5, 6, 7). It counts as biochemical. The settings on record: 3.3 g/l cellobiose, 50° C. and pH 6.5; compared to native CelA (SEQ ID NO: 4).
Regarding B1, the “Fold improvement over wildtype CelA” value is on record as “+ (+ = 1.1 to 2.0 fold improvement over native CelA (SEQ ID NO: 4))”.
As to B2, the “Fold improvement over wildtype CelA” value is reported as “+ (+ = 1.1 to 2.0 fold improvement over native CelA (SEQ ID NO: 4))”.
On to B3, for which the “Fold improvement over wildtype CelA” value is listed as “+ (+ = 1.1 to 2.0 fold improvement over native CelA (SEQ ID NO: 4))”.
For B4 the value was “+ (+ = 1.1 to 2.0 fold improvement over native CelA (SEQ ID NO: 4))”; for B5, “+ (+ = 1.1 to 2.0 fold improvement over native CelA (SEQ ID NO: 4))”.
Turning to B6, the “Fold improvement over wildtype CelA” value was “+ (+ = 1.1 to 2.0 fold improvement over native CelA (SEQ ID NO: 4))”.
Take B7: the “Fold improvement over wildtype CelA” value is “+ (+ = 1.1 to 2.0 fold improvement over native CelA (SEQ ID NO: 4))”.
As to B8, the “Fold improvement over wildtype CelA” value was “+ (+ = 1.1 to 2.0 fold improvement over native CelA (SEQ ID NO: 4))”.
